The results in this text go back to EP4786495A1 (Nanjing Leads Biolabs Co., Ltd., dated 2026).

Experiment [1] addresses T1, human BAFF protein (ACRO Biosystems, Cat. No.: BAF-H52D4) (human, UniProt Q9Y275 134-285). Kind of experiment: BLI Octet RED96e, protein captured on AHC sensor, BAFF 100 nM in solution. (In general: Biolayer interferometry detects binding as a change in optical thickness at a sensor tip.)
The target of experiment [2] is T2, human BDCA2 protein (Kactus Biosystems, Cat# BCA-HM402) (human, UniProt Q8WTT0 45-213).
T2 construct: also called Human BDCA2-His
T2 sequence: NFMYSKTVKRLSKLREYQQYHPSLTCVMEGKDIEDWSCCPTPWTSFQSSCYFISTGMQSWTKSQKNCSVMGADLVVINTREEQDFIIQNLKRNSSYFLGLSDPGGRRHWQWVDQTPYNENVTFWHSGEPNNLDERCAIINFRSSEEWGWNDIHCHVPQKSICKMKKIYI
Kind of experiment: BLI Octet RED96e, protein captured on AHC sensor, BDCA2 100 nM in solution.

For experiment [3], the target named is T3, human APRIL protein (ACRO Biosystems, Cat. No.: APL-H52D1) (human, UniProt O75888 115-250, limits assumed).
T3 sequence (looked up): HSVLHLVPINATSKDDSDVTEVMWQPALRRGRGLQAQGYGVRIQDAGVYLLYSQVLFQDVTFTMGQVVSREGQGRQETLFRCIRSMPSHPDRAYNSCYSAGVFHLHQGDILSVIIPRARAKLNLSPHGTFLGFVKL
The experiment can be described thus: BLI Octet RED96e, protein captured on AHC sensor, APRIL 100 nM in solution.

Experiment [4] concerns the target T1, human BAFF protein (ACRO Biosystems, …). Kind of experiment: BLI Octet RED96e, protein captured on AHC sensor, BAFF 1.56-100 nM in solution.
The target in experiment [5] is T3, human APRIL protein (ACRO Biosystems, …). The experiment can be described thus: BLI Octet RED96e, protein captured on AHC sensor, APRIL 1.56-100 nM in solution.
For experiment [6], the target named is T2, human BDCA2 protein (Kactus Biosystems, …). Kind of experiment: BLI Octet RED96e, fusion protein captured on AHC sensor, BDCA2 1.56-100 nM in solution.
For experiment [7], the target named is T4, human FcRn protein (ACRO Biosystems, Cat. No.: FCM-H82W4) (human, UniProt P55899 24-297; P61769 21-119). Kind of experiment: BLI Octet RED96e, FcRn on SA sensor, fusion protein 3.13-200 nM; binding pH 6.0, dissociation pH 6.0.
T4 sequence (P55899 24-297 limits assumed, chain 1 of 2): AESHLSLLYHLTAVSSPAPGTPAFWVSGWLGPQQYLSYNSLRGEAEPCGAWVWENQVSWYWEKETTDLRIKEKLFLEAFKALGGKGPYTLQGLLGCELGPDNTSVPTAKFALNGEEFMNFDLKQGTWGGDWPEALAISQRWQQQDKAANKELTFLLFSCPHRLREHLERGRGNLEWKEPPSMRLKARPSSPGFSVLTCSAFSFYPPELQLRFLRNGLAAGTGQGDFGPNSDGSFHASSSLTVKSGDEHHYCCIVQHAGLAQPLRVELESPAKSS
T4 sequence (P61769 21-119 limits assumed, chain 2 of 2): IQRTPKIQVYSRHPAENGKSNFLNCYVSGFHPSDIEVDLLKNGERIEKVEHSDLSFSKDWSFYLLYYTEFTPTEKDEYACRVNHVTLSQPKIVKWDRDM
Experiment [8] deals with T4, human FcRn protein (ACRO Biosystems, …). The experiment can be described thus: BLI Octet RED96e, FcRn on SA sensor, fusion protein 3.13-200 nM; binding pH 6.0, dissociation pH 7.4.
Experiment [9] has as its target T1, human BAFF protein (ACRO Biosystems, …). Kind of experiment: BLI Octet RED96e, protein captured on AHC sensor, BAFF 1.56-100 nM in solution. This is another data set of the same source.
For experiment [10], the target named is T3, human APRIL protein (ACRO Biosystems, …). Kind of experiment: BLI Octet RED96e, protein captured on AHC sensor, APRIL 1.56-100 nM in solution. The source holds these as a separate data set.
Experiment [11] has as its target T2, human BDCA2 protein (Kactus Biosystems, …). Kind of experiment: BLI Octet RED96e, fusion protein captured on AHC sensor, BDCA2 1.56-100 nM in solution. This is another data set of the same source.
For experiment [12] the target is unchanged. Kind of experiment: BLI Octet RED96, antibody captured on AHC sensor, BDCA2 50 nM in solution.
For experiment [13] the target is unchanged. The experiment can be described thus: BLI Octet RED96e, antibody captured on AHC sensor, BDCA2 100 nM in solution.

T1 sequence (Q9Y275 134-285 limits assumed): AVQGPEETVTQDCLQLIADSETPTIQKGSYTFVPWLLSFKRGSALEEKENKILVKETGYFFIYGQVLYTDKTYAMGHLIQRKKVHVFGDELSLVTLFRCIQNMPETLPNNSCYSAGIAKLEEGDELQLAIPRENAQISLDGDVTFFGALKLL

B1: bispecific fusion protein BI-9D2-A (bispecific antibody, human IgG1, kappa)
heavy: not shown
light: ETVLTQSPATLSLSPGERATLSCRASSSVSYMYWFQQKPGQAPRLLIYSTSNLASGIPARFSGSGSGTDYTLTISSLEPEDFAVYYCQQRRNYPHTFGGGTKVEIKRTVAAPSVFIFPPSDEQLKSGTASVVCLLNNFYPREAKVQWKVDNALQSGNSQESVTEQDSKDSTYSLSSTLTLSKADYEKHKVYACEVTHQGLSSPVTKSFNRGEC
notes: also called heavy chain 37F2C6-HuVH3-D2
In general, Kd refers to a measure of binding affinity in units of concentration. The low end stands for a tighter complex, the high end for a looser complex. As a reminder, the koff is the rate constant with which the complex falls apart. High values mean fast dissociation, low ones slow dissociation. Broadly, the kon is the second-order rate constant of association. A low value points to slower complex formation. As for B1, the Kd in experiment [1] is under 0.001 nM; in experiment [2], under 0.001 nM; in experiment [3], 0.246 nM; in experiment [4], under 0.001 nM; in experiment [5] it was 0.679 nM; in experiment [6], under 0.001 nM. Also, the “Response (nm)” value in [1] came to 0.338 nm; in experiment [2] it was 0.481 nm; in [3] it was 0.252 nm. For the same molecule, the koff in experiment [1] was under 1e-07 s⁻¹; in experiment [2] it was under 1e-07 s⁻¹; in experiment [3] it was 0.000214 s⁻¹; in [4], under 1e-07 s⁻¹; in experiment [5] it was 0.00059 s⁻¹; in [6], under 1e-07 s⁻¹. For the same molecule, the on-rate (kon) in [1] came to 407000 M⁻¹ s⁻¹; in experiment [2] it was 154000 M⁻¹ s⁻¹; in experiment [3] it was 873000 M⁻¹ s⁻¹; in experiment [4], 571000 M⁻¹ s⁻¹; in experiment [5], 868000 M⁻¹ s⁻¹; in experiment [6] it was 88800 M⁻¹ s⁻¹.

B2: bispecific fusion protein BI-9ND2-A (bispecific antibody, human IgG1, kappa)
heavy: not shown
light: B1 light
notes: also called heavy chain 37F2C6-HuVH3-3N-D2
In the case of B2, the dissociation constant Kd is under 0.001 nM in [1]; under 0.001 nM in [2]; under 0.001 nM in [3]; 0.147 nM in experiment [4]; 0.415 nM in experiment [5]; under 0.001 nM in experiment [6]. For the same molecule, the Kd came to 20.1 nM in [7] and 3140 nM in experiment [8]. Further, the “Response (nm)” value in experiment [1] was found to be 0.49 nm; in [2], 0.449 nm; in [3], 0.397 nm. Further, the koff is under 1e-07 s⁻¹ in experiment [1]; under 1e-07 s⁻¹ in experiment [2]; under 1e-07 s⁻¹ in [3]; 7.23e-05 s⁻¹ in [4]; 0.000321 s⁻¹ in [5]; under 1e-07 s⁻¹ in experiment [6]. Besides, the koff in experiment [7] was 0.035 s⁻¹; in [8], 0.0842 s⁻¹. For the same molecule, the kon in experiment [1] was determined as 438000 M⁻¹ s⁻¹; in [2] it was 112000 M⁻¹ s⁻¹; in experiment [3], 722000 M⁻¹ s⁻¹; in experiment [4], 492000 M⁻¹ s⁻¹; in experiment [5], 774000 M⁻¹ s⁻¹; in experiment [6] it was 86600 M⁻¹ s⁻¹. Further, the kon in [7] stood at 1.74e+06 M⁻¹ s⁻¹; in experiment [8], 26800 M⁻¹ s⁻¹.

B3: bispecific fusion protein BI-9NTACI-A (bispecific antibody, human IgG1, kappa)
heavy: not shown
light: B1 light
notes: also called heavy chain 37F2C6-HuVH3-3N-TACI
For B3, the Kd in [4] is 0.951 nM; in experiment [5], 0.619 nM; in [6] it was under 0.001 nM. The dissociation rate constant (koff) is 0.000342 s⁻¹ in [4], 0.000478 s⁻¹ in experiment [5] and under 1e-07 s⁻¹ in experiment [6]. The on-rate constant (kon) in experiment [4] was 360000 M⁻¹ s⁻¹; in experiment [5], 772000 M⁻¹ s⁻¹; in experiment [6], 85400 M⁻¹ s⁻¹.

B4: bispecific fusion protein having YTE mutations in the Fc region BI-9ND2-A-YTE (bispecific antibody, human IgG1, kappa)
heavy: SLSCRKEQGKFYDHLLRDCISCASICGQHPKQCAYFCENGGGGSGGGGSGGGGSQVQLVQSGAEVKKPGASVKVSCKASGYTFTDFAVHWVRQAPGQRLEWMGLIGTSSGSTNYNQKFQGRATMTVDKSANTAYMELSSLRSEDTAVYYCARNGYYVGYYALDYWGQGTTVTVSSASTKGPSVFPLAPSSKSTSGGTAALGCLVKDYFPEPVTVSWNSGALTSGVHTFPAVLQSSGLYSLSSVVTVPSSSLGTQTYICNVNHKPSNTKVDKKVEPKSCDKTHTCPPCPAPELLGGPSVFLFPPKPKDTLYITREPEVTCVVVDVSHEDPEVKFNWYVDGVEVHNAKTKPREEQYNSTYRVVSVLTVLHQDWLNGKEYKCKVSNKALPAPIEKTISKAKGQPREPQVYTLPPSRDELTKNQVSLTCLVKGFYPSDIAVEWESNGQPENNYKTTPPVLDSDGSFFLYSKLTVDKSRWQQGNVFSCSVMHEALHNHYTQKSLSLSPGK
light: B1 light
notes: also called heavy chain 37F2C6-HuVH3-ND2-YTE
As for B4, the dissociation constant (Kd) in [9] is 0.0384 nM; in experiment [10] it was under 0.001 nM; in experiment [11], under 0.001 nM; in experiment [7], 5.12 nM; in experiment [8], 727 nM. In addition, the off-rate (koff) is 1.97e-05 s⁻¹ in experiment [9]; under 1e-07 s⁻¹ in [10]; under 1e-07 s⁻¹ in experiment [11]; 0.0062 s⁻¹ in experiment [7]; 0.0888 s⁻¹ in [8]. In addition, the on-rate constant (kon) in [9] is 515000 M⁻¹ s⁻¹; in experiment [10] it was 981000 M⁻¹ s⁻¹; in experiment [11], 100000 M⁻¹ s⁻¹; in experiment [7] it was 1.21e+06 M⁻¹ s⁻¹; in [8] it was 122000 M⁻¹ s⁻¹.

B5: anti-BDCA2 chimeric antibody 37F2C6 (antibody, human IgG1, kappa, V domains shown)
VH: QVLLQQSGPELVRPGVSVKVSCKGSGYTFTDFAVHWVKQSQTKSLEWIGLIGTSSGSTNYNQKFKDKATMTVDKSSNTAYLELARLTSEDSAIYYCARNGYYVGYYALDYWGQGTSVTVSS
VL: QTVLTQSPAIMSASPGEKVTITCSASSSVSYMYWFQQKPGTSPKLWIYSTSNLASGVPPRFSGSGSGTSYSLTISRMEAEDAATYYCQQRRNYPHTFGGGTKLEIKR
In experiment [12], B5 gave an equilibrium dissociation constant (Kd) of under 0.001 nM, an off-rate constant (koff) of under 1e-07 s⁻¹ and a kon of 161000 M⁻¹ s⁻¹. In experiment [13], this molecule had a dissociation constant (Kd) of under 0.001 nM, a koff of under 1e-07 s⁻¹ and a kon of 141000 M⁻¹ s⁻¹.

B6: control antibody telitacicept (Fc fusion)
chain: SRVDQEERFPQGLWTGVAMRSCPEEQYWDPLLGTCMSCKTICNHQSQRTCAAFCRSLSCRKEQGKFYDHLLRDCISCASICGQHPKQCAYFCENKLRSPVNLPPELDKTHTCPPCPAPEAEGAPSVFLFPPKPKDTLMISRTPEVTCVVVDVSHEDPEVKFNWYVDGVEVHNAKTKPREEQYNSTYRVVSVLTVLHQDWLNGKEYKCKVSNKALPSSIEKTISKAKGQPREPQVYTLPPSRDELTKNQVSLTCLVKGFYPSDIAVEWESNGQPENNYKTTPPVLDSDGSFFLYSKLTVDKSRWQQGNVFSCSVMHEALHNHYTQKSLSLSPGK
notes: TACI-Fc fusion control; also called TACI fusion protein telitacicept
For B6, the Kd amounted to 1.1 nM in experiment [1]; 2.08 nM in experiment [3]; 1.47 nM in [4]; 1.47 nM in experiment [9]; 2.05 nM in experiment [5]; 2.05 nM in [10]. In addition, the entries for the “Response (nm)” value in experiment [1], in [2] and in experiment [3] were 0.319 nm, -0.0175 nm and 0.199 nm, respectively. The koff in experiment [1] turned out to be 0.000262 s⁻¹; in experiment [3], 0.00141 s⁻¹; in experiment [4], 0.000475 s⁻¹; in [9] it was 0.000475 s⁻¹; in experiment [5], 0.00139 s⁻¹; in [10], 0.00139 s⁻¹. For the same molecule, the kon in [1] was determined as 239000 M⁻¹ s⁻¹; in experiment [2], 95600 M⁻¹ s⁻¹; in [3], 681000 M⁻¹ s⁻¹; in experiment [4] it was 323000 M⁻¹ s⁻¹; in [9], 323000 M⁻¹ s⁻¹; in experiment [5], 678000 M⁻¹ s⁻¹. In experiment [10], this molecule returned a kon of 678000 M⁻¹ s⁻¹.

B7: anti-BDCA2 chimeric antibody 26H10A11-1 (antibody, human IgG1, kappa, V domains shown)
VH: DVKLVESGGGLVKPGGSLKLSCAASGFTFSSSTMSWVRQTPEKRLEWVATTGGGGSYTYNPDSVKGRFTISRDNAKNTLYLQMSSLRSEDTAMYYCTRDRYDGYYFSMDFWGQGTSVTVSS
VL: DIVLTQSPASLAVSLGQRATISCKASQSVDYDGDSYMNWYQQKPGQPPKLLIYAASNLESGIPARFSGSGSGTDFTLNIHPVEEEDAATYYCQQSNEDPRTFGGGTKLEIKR
In [12], B7 had a dissociation constant (Kd) of 0.503 nM, a koff of 6.16e-05 s⁻¹ and a kon of 123000 M⁻¹ s⁻¹.
